Test results as given in patent publication US20250277030A1 (Zymeworks, published 2025).

T1: human sodium-dependent phosphate transporter 2B (NaPi2b) (human, UniProt O95436 1-690)
T1 sequence: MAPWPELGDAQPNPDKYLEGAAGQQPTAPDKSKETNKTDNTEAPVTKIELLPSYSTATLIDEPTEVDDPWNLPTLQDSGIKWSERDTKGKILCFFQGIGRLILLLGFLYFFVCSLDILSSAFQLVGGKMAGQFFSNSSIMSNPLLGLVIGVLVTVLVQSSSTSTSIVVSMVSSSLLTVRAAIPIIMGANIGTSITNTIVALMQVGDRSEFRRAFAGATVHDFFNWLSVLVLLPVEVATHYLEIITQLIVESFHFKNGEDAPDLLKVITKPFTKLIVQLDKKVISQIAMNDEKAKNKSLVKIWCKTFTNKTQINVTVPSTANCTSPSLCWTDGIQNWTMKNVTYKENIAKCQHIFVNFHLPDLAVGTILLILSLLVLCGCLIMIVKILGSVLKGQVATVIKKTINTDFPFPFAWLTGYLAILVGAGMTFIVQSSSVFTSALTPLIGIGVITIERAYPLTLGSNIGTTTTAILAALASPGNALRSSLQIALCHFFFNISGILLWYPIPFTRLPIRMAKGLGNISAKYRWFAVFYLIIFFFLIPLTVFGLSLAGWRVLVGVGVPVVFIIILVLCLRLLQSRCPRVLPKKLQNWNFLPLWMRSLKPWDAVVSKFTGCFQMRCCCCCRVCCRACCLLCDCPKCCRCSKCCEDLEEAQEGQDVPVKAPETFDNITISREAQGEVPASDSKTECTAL

B1: v18993-DL1, lifastuzumab conjugated to MC-GGFG-AM-DXd1 (DAR 8) (antibody, human IgG1, kappa)
heavy 1: GEVQLVESGGGLVQPGGSLRLSCAASGFSFSDFAMSWVRQAPGKGLEWVATIGRVAFHTYYPDSMKGRFTISRDNSKNTLYLQMNSLRAEDTAVYYCARHRGFDVGHFDFWGQGTLVTVSSASTKGPSVFPLAPSSKSTSGGTAALGCLVKDYFPEPVTVSWNSGALTSGVHTFPAVLQSSGLYSLSSVVTVPSSSLGTQTYICNVNHKPSNTKVDKKVEPKSCDKTHTCPPCPAPELLGGPSVFLFPPKPKDTLMISRTPEVTCVVVDVSHEDPEVKFNWYVDGVEVHNAKTKPREEQYNSTYRVVSVLTVLHQDWLNGKEYKCKVSNKALPAPIEKTISKAKGQPREPQVYVYPPSRDELTKNQVSLTCLVKGFYPSDIAVEWESNGQPENNYKTTPPVLDSDGSFALVSKLTVDKSRWQQGNVFSCSVMHEALHNHYTQKSLSLSPG
heavy 2: not shown
light: GDIQMTQSPSSLSASVGDRVTITCRSSETLVHSSGNTYLEWYQQKPGKAPKLLIYRVSNRFSGVPSRFSGSGSGTDFTLTISSLQPEDFATYYCFQGSFNPLTFGQGTKVEIKRTVAAPSVFIFPPSDEQLKSGTASVVCLLNNFYPREAKVQWKVDNALQSGNSQESVTEQDSKDSTYSLSSTLTLSKADYEKHKVYACEVTHQGLSSPVTKSFNRGEC
modifications: MC-GGFG-AM-DXd1 (DL1) on cysteines freed by reduction; positions not given; MC-GGFG-AM-DXd1 (DL1) on cysteines freed by reduction; positions not given; DAR 8 for the whole antibody
B2: v18992-DL1, MX35 conjugated to MC-GGFG-AM-DXd1 (DAR 8) (antibody, human IgG1, kappa)
heavy 1: GQVQLVQSGAEVVKPGASVKMSCKASGYTFTGYNIHWVKQAPGQGLEWIGAIYPGNGDTSYKQKFRGRATLTADTSTSTVYMELSSLRSEDSAVYYCARGETARATFAYWGQGTLVTVSSASTKGPSVFPLAPSSKSTSGGTAALGCLVKDYFPEPVTVSWNSGALTSGVHTFPAVLQSSGLYSLSSVVTVPSSSLGTQTYICNVNHKPSNTKVDKKVEPKSCDKTHTCPPCPAPELLGGPSVFLFPPKPKDTLMISRTPEVTCVVVDVSHEDPEVKFNWYVDGVEVHNAKTKPREEQYNSTYRVVSVLTVLHQDWLNGKEYKCKVSNKALPAPIEKTISKAKGQPREPQVYVYPPSRDELTKNQVSLTCLVKGFYPSDIAVEWESNGQPENNYKTTPPVLDSDGSFALVSKLTVDKSRWQQGNVFSCSVMHEALHNHYTQKSLSLSPG
heavy 2: not shown
light: GDIQMTQSPSSLSASVGDRVTITCSASQDIGNFLNWYQQKPGKTVKVLIYYTSSLYSGVPSRFSGSGSGTDYTLTISSLQPEDFATYYCQQYSKLPLTFGQGTKLELKRTVAAPSVFIFPPSDEQLKSGTASVVCLLNNFYPREAKVQWKVDNALQSGNSQESVTEQDSKDSTYSLSSTLTLSKADYEKHKVYACEVTHQGLSSPVTKSFNRGEC
modifications: MC-GGFG-AM-DXd1 (DL1) on cysteines freed by reduction; positions not given; MC-GGFG-AM-DXd1 (DL1) on cysteines freed by reduction; positions not given; DAR 8 for the whole antibody
B3: v23855-DL3, v23855 conjugated to MC-VC-PABC-MMAE (DAR 4) (antibody, human IgG1, kappa, V domains shown)
VH: QAYLQQSGAELVRPGASVKMSCKASGFTFTSYNVHWVKQTPRQGLEWIAAISPGNGDLSYNQRFKDKATLTVDRSSSTAYMQLSGLTSEDSAVYFCARGRTGMGAVDYWGQGTSVTVSS
VL: DVQMTQTASSLSASLGDRVTISCRASQDVYSYLNWYQQKPHGTVKLLIYYTSRLQSGVPSRFTGSGSGTDYSLTISNLEPEDIATYYCQQYNIFPWTFGGGTKLEIKR
modifications: MC-VC-PABC-MMAE (DL3) on cysteines freed by reduction; positions not given; MC-VC-PABC-MMAE (DL3) on cysteines freed by reduction; positions not given; DAR 4 for the whole antibody

Target: T1, human sodium-dependent phosphate …
Assay: cell-based or functional assay

Row | Binder | In vitro cytotoxicity EC50 (nM), HCC-78 [nM] | In vitro cytotoxicity EC50 (nM), IGROV-1 [nM] | In vitro cytotoxicity EC50 (nM), OVCAR-3 [nM]
1 | B1 | 5.45 | 3.45 | –
2 | B2 | 0.68 | 1.04 | –
3 | B3 | 0.2 | 0.18 | 0.05
